This is an account of results in PMC12521282.

Conditions in all cases: glycan lost; control: wild type
The nature of data set [1]: DSLNT formation, TLC and HPLC.
Data set [2] in a line: NanoDSF, midpoint melting temperature. A general note: Differential scanning fluorimetry follows unfolding on heating by fluorescence.
Data set [3] can be described thus: secreted protein yield, P. pastoris X-33.
Data set [4] in a line: CD spectroscopy, secondary structure content.
Data set [5] can be described thus: NanoDSF, onset of melting, Tris buffer.
Data set [6] in a line: NanoDSF, onset and Tm, Tris and HEPES.

B1: ST6GalNAc5 (Δ71ST6GalNAc5): N137Q/N161Q (protein)
parent chain: MKTLMRHGLAVCLALTTMCTSLLLVYSSLGGQKERPPQQQQQQQQQQQQASATGSSQPAAESSTQQRPGVPAGPRPLDGYLGVADHKPLKMHCRDCALVTSSGHLLHSRQGSQIDQTECVIRMNDAPTRGYGRDVGNRTSLRVIAHSSIQRILRNRHDLLNVSQGTVFIFWGPSSYMRRDGKGQVYNNLHLLSQVLPRLKAFMITRHKMLQFDELFKQETGKDRKISNTWLSTGWFTMTIALELCDRINVYGMVPPDFCRDPNHPSVPYHYYEPFGPDECTMYLSHERGRKGSHHRFITEKRVFKNWARTFNIHFFQPDWKPESLAINHPENKPVF
Turning to B1, the “enzymatic_activity, other: DSLNT produced” value in data set [1] is reported as “decreases, 0.189 ± 0.005 (4.5 µM enzyme) vs 0.202 ± 0.036 (1.0 µM enzyme)”. Besides, in data set [2], the “stability_or_folding, Tm” value is “no change”. The “expression_or_secretion, fold_change” value in data set [3] is “decreases”. Besides, in data set [4], the structure_or_conformation result is listed as “changes”. In addition, the “stability_or_folding, other: onset-of-melting temperature” value in data set [5] is “decreases”.

B2: ST6GalNAc6 (Δ70ST6GalNAc6): N98Q/N149Q (protein)
parent chain: MACSRPPSQCEPTSLPPGPPAGRRHLPLSRRRREMSSNKEQRSAVFVILFALITILILYSSNSANEVFHYGSLRGRSRRPVNLKKWSITDGYVPILGNKTLPSRCHQCVIVSSSSHLLGTKLGPEIERAECTIRMNDAPTTGYSADVGNKTTYRVVAHSSVFRVLRRPQEFVNRTPETVFIFWGPPSKMQKPQGSLVRVIQRAGLVFPNMEAYAVSPGRMRQFDDLFRGETGKDREKSHSWLSTGWFTMVIAVELCDHVHVYGMVPPNYCSQRPRLQRMPYHYYEPKGPDECVTYIQNEHSRKGNHHRFITEKRVFSSWAQLYGITFSHPSWT
Regarding B2, the enzymatic_activity result in data set [1] was “abolishes”. The “expression_or_secretion, fold_change” value in data set [3] is “decreases”. For the same protein, the structure_or_conformation result in data set [4] was “changes”. Moreover, in data set [6], the “stability_or_folding, Tm” value was “decreases, reduced by 7.3 (Tris), 10 (HEPES) vs 56.8”.
